Test results published in patent JP2024044204A (dated 2024).
Residue numbers refer to the chain shown, from its start. In names and notes the source's numbering stands.

Tests used:
[1] = biological target: T1, SARS-CoV-2 RBD, Omicron strain (B.1.1.529 (BA.1)) (SARS-CoV-2 Omicron strain B.1.1.529 …, UniProt P0DTC2 319-541); test: ELISA of culture supernatant on Omicron RBD (Fig. 2-1)
T1 construct: also called Omicron-derived RBD; RBD protein (Omicron type)

[2] = biological target: T1, SARS-CoV-2 RBD, Omicron strain …; test: ELISA on Omicron RBD (supernatant, Fig. 2-1; 300 ng/ml, Fig. 2-2)
[3] = biological target: T1, SARS-CoV-2 RBD, Omicron strain …; test: ELISA on Omicron RBD, 300 ng/ml antibody (Fig. 2-2)

B1: 28G_1-GN (UT28K S55G) (antibody, V domains shown)
VH: QMQLVQSGPEVKKPGTSVKVSCKASGFTFSISAVQWVRQARGQRLEWIGWIVVGGGNTNYAQKFQERVTITRDMSTSTAYMELSSLRFEDTAVYYCAAPYCGGDCSDGFDIWGQGTMVTVSS
VL: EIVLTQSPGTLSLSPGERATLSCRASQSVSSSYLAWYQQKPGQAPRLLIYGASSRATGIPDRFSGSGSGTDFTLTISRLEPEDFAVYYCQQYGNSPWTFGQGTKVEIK
[1]
  binding result: no binding

B2: 4_12-SS/WT (UT28K N57S) (antibody, V domains shown)
VH: B1 VH with G55S, N57S
VL: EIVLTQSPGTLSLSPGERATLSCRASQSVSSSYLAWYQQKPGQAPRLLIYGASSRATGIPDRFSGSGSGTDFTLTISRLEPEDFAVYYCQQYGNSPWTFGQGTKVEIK
[2]
  binding result: no binding (tested: 300 ng/ml (Fig. 2-2))

B3: 28G_8-GG (UT28K S55G, N57G) (antibody, V domains shown)
VH: B1 VH with N57G
VL: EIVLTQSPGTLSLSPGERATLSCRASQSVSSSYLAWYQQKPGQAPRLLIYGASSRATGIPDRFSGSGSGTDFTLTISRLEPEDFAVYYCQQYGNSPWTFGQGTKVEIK
[1]
  binding result: no binding

B4: 28G_6-GR (UT28K S55G, N57R) (antibody, V domains shown)
VH: B1 VH with N57R
VL: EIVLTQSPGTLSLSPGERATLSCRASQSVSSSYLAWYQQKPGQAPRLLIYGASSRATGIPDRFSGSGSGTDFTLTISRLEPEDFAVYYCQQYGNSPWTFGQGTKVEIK
[1]
  binding result: no binding

B5: 28G_3-SR (UT28K N57R) (antibody, V domains shown)
VH: B1 VH with G55S, N57R
VL: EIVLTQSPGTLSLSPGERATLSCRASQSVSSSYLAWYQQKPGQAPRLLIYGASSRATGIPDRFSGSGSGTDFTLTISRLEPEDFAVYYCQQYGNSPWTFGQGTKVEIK
[2]
  binding result: no binding (tested: 300 ng/ml (Fig. 2-2))

B6: 28G_5-SG (UT28K N57G) (antibody, V domains shown)
VH: B1 VH with G55S, N57G
VL: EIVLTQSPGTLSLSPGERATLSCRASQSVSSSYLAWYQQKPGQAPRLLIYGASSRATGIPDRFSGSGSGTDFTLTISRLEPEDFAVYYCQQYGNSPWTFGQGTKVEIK
[2]
  binding result: no binding (tested: 300 ng/ml (Fig. 2-2))

B7: UT28K N57E (antibody, V domains shown)
VH: B1 VH with G55S, N57E
VL: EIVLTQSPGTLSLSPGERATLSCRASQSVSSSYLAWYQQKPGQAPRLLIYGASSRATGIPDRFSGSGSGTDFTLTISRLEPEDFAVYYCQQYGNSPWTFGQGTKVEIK
[3]
  binding result: no binding (tested: 300 ng/ml (Fig. 2-2))
